Measurements: patent US20260174888A1 (ARARIS BIOTECH, published 2026)
Read-outs that look alike come from different tables or passages of the source.

T1: CEACAM-5 (UniProt P06731 35-702, limits assumed)
T1 sequence (looked up): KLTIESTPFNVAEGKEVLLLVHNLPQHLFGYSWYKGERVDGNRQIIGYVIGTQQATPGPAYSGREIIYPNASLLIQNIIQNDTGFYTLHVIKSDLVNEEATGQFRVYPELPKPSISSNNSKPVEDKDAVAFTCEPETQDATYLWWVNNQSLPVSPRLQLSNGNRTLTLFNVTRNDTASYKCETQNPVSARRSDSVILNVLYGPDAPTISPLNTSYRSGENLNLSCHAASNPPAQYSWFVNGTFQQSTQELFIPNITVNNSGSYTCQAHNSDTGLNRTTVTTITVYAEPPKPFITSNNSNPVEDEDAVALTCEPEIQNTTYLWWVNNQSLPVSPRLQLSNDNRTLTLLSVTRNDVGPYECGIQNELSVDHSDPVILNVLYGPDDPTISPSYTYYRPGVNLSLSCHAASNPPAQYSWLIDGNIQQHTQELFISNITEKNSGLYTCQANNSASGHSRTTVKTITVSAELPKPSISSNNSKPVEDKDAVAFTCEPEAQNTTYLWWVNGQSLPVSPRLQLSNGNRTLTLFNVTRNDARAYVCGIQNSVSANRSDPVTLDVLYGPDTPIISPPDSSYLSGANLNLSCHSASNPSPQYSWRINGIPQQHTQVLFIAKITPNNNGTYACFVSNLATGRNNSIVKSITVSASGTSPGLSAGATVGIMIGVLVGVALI

B1: ARA-20-RKAA-PABC-MMAE (antibody, human IgG1, kappa, V domains shown)
VH: EVQLVESGGGVVQPGRSLRLSCSASGFDFTTYWMSWVRQAPGKGLEWIGEIHPDSSTINYAPSLKDRFTISRDNAKNTLFLQMDSLRPEDTGVYFCASLYFGFPWFAYWGQGTPVTVSS
VL: DIQLTQSPSSLSASVGDRVTITCKASQDVGTSVAWYQQKPGKAPKLLIYWTSTRHTGVPSRFSGSGSGTDFTFTISSLQPEDIATYYCQQYSLYRSFGQGTKVEIKR
modifications: linker-payload RKAA-PABC-MMAE (FIG. 6) conjugated by MTG to the native, glycosylated antibody; conjugated residue not stated in the example
B2: ARA-20-FA-PEG24-RKAA-PABC-MMAE (antibody, human IgG1, kappa, V domains shown)
VH: B1 VH
VL: B1 VL
modifications: linker-payload FA-PEG24-RKAA-PABC-MMAE (FIG. 3) conjugated by MTG to the native, glycosylated antibody; conjugated residue not stated in the example
B3: ARA-20-ARK-PABC-MMAE (antibody, human IgG1, kappa, V domains shown)
VH: B1 VH
VL: B1 VL
modifications: linker-payload ARK-PABC-MMAE conjugated by MTG to the native, glycosylated antibody; conjugated residue not stated in the example
B4: ARA-20-FA-PEG12-RKAA-PABC-MMAE (antibody, human IgG1, kappa, V domains shown)
VH: B1 VH
VL: B1 VL
modifications: linker-payload FA-PEG12-RKAA-PABC-MMAE (FIG. 4) conjugated by MTG to the native, glycosylated antibody; conjugated residue not stated in the example
B5: ARA-20-FA-PEG12-ARK-PABC-MMAE (antibody, human IgG1, kappa, V domains shown)
VH: B1 VH
VL: B1 VL
modifications: linker-payload FA-PEG12-ARK-PABC-MMAE (FIG. 5) conjugated by MTG to the native, glycosylated antibody; conjugated residue not stated in the example

Columns and labels:
[1] = target: T1, CEACAM-5; assay: cell-based or functional assay
[2] = target: T1, CEACAM-5; assay: cell-based or functional assay; remark: listed apart in the source

Binder | IC50 (nM), cytotoxicity on NCI-H2110 cells, CellTiterGlo viability, 96 hours [1] [nM] | IC50 (nM), cytotoxicity on NCI-H2110 cells, CellTiterGlo viability, 96 hours [2] [nM]
B1 | 30.2 | 
B2 | 5.93 | 
B3 |  | 58
B4 | 4.68 | 
B5 |  | 27.8
